Assay results reported in patent US20120114630.

Molecular target: recombinant staphylokinase SAK-SY162

B1: microplasminogen variant Lys137Met (K137M) (protein)
chain: APSFDCGKPQVEPKKCPGRVVGGCVAHPHSWPWQVSLRTRFGMHFCGGTLISPEWVLTAAHCLEKSPRPSSYKVILGAHQEVNLEPHVQEIEVSRLFLEPTRKDIALLKLSSPAVITDKVIPACLPSPNYVVADRTECFITGWGETQGTFGAGLLMEAQLPVIENKVCNRYEFLNGRVQSTELCAGHLAGGTDSCQGDSGGPLVCFEKDKYILQGVTSWGLGCARPNKPGVYVRVSRFVTWIEGVMRNN
B1 was tested, and the “conversion of inactive microplasminogen into active microplasmin, HPLC profile 10 min after addition of staphylokinase” value was roughly 85%.
